Measured values published in US20050112555A1, “Cytidine deaminase activators, deoxycytidine deaminase activators, Vif antagonists, and methods of screening for molecules thereof” (priority 2003, published 2005).
Where two headings read alike, the source gives them in different places.

How the values were obtained:
[1] = system: reporter apoB mRNA site C6666; assay: Poisoned primer extension editing assay of reporter apoB mRNA in yeast
HIV-1 GP-RNA = assay: UV crosslinking RNA binding assay, HIV-1 GP-RNA; details: recombinant CEM15 1, 2 and 4 μg; 20 fmol radiolabeled GP-RNA
apoB RNA = assay: UV crosslinking RNA binding assay, apoB RNA; details: recombinant CEM15; 20 fmol radiolabeled apoB RNA
vif− HIV-1 particles = assay type: cell-based
HIV-1 p24 and RT protein = assay: Western blot of HIV-1 proteins in proviral-transfected 293T cell lysates; assay type: cell-based; details: ΔVif proviral DNA, 72 h, vs control pIRES-P cells
[2] = system: pseudotyped HIV-1 viral particles; assay type: cell-based; details: vs control 293T cells with pIRES-P vector
[3] = system: HIV-1 Gag-Pol mRNA (GP-RNA region); assay: Northern blot of viral Gag-Pol poly A+ RNA abundance in 293T cells; assay type: cell-based; details: ΔVif vs Vif+ provirus, 293T-CEM15
[4] = overexpressed in yeast, late log phase growth with galactose feeding

B1: CDA from E. coli: dimeric cytidine deaminase from E. coli, equivalent to PDB entry 1AF2 (protein, UniProt P0ABF6 1-294, looked up)
Cytidine deaminase: MHPRFQTAFAQLADNLQSALEPILADKYFPALLTGEQVSSLKSATGLDEDALAFALLPLAAACARTPLSNFNVGAIARGVSGTWYFGANMEFIGATMQQTVHAEQSAISHAWLSGEKALAAITVNYTPCGHCRQFMNELNSGLDLRIHLPGREAHALRDYLPDAFGPKDLEIKTLLMDEQDHGYALTGDALSQAAIAAANRSHMPYSKSPSGVALECKDGRIFSGSYAENAAFNPTLPPLQGALILLNLKGYDYPDIQRAVLAEKADAPLIQWDATSATLKALGCHSIDRVLLA
editing activity on reporter apoB mRNA (in words) ([1]; expressed in yeast): incapable of editing on the reporter substrate

B2: Cdd1: tetrameric cytidine deaminase from S. cerevisiae with RNA editing activity (protein, UniProt Q06549 1-142, looked up)
Cytidine deaminase: MKVGGIEDRQLEALKRAALKACELSYSPYSHFRVGCSILTNNDVIFTGANVENASYSNCICAERSAMIQVLMAGHRSGWKCMVICGDSEDQCVSPCGVCRQFINEFVVKDFPIVMLNSTGSRSKVMTMGELLPMAFGPSHLN
C to U editing of reporter apoB mRNA at site C6666 [1, 4]: 6.7%
editing level relative to negative control (empty vector) [1, 4]: ~10 ×

B3: CEM15: human cytidine deaminase (APOBEC-3G) that reduces retroviral infectivity; HA-tagged, stably expressed in 293T cells or recombinant (protein)
chain: MKPHFRNTVERMYRDTFSYNFYNRPILSRRNTVWLCYEVKTKGPSRPPLDAKIFRGQVYSELKYHPEMRFFHWFSKWRKLHRDQEYEVTWYISWSPCTKCTRDMATFLAEDPKVTLTIFVARLYYFWDPDYQEALRSLCQKRDGPRATMKIMNYDEFQHCWSKFVYSQRELFEPWNNLPKYYILLHIMLGEILRHSMDPPTFTFNFNNEPWVRGRHETYLCYEVERMHNDTWVLLNQRRGFLCNQAPHKHGFLEGRHAELCFLDVIPFWKLDLDQDYRVTCFTSWSPCFSCAQEMAKFISKNKHVSLCIFTARIYDDQGRCQEGLRTLAEAGAKISIMTYSEFKHCWDTFVDHQGCPFQPWDGLDEHSQDLSGRLRAILQNQEN
modifications: left off: small tags and cut ends
notes: human cytidine deaminase (APOBEC-3G) that reduces retroviral infectivity; HA-tagged, stably expressed in 293T cells or recombinant
RNA binding (UV crosslinking) (HIV-1 GP-RNA): bound to radiolabeled HIV-1 GP-RNA in concentration dependent manner
RNA binding (UV crosslinking), yield of complexes compared with GP-RNA (apoB RNA): the yield of complexes was similar
GFP expression from vif−, CEM15+ particles (vif− HIV-1 particles): indistinguishable from background fluorescence in control cells
decrease in Vif− viral infectivity (vif− HIV-1 particles): ≥ 100 fold
HIV-1 p24 and RT protein abundance (HIV-1 p24 and RT protein): marked reduction
reduction of viral particle production ([2]; Vif+ provirus): 5 fold
reduction of viral particle production ([2]; ΔVif provirus (absence of Vif)): 100 fold
depletion of viral RNA levels ([3]; 24 h post-transfection): 2 fold
depletion of viral RNA levels ([3]; 48 h post-transfection): 9 fold
depletion of viral RNA levels ([3]; 72 h post-transfection): 56 fold
